Assay results reported in paper PMC9780223 (2022).

Target: purified recombinant PAPP-A free of STC2 (apo PAPP-A) (human, UniProt Q13219 82-1627, fluorescently labeled with Protein Labeling Kit RED-NHS (in MST))
Assay: MST; in the presence of IGF2

- Kd: ~0.16 µM
B1: IGFBP4 with C-terminal His6 tag (natural protein)
chain: DEAIHCPPCSEEKLARCRPPVGCEELVREPGCGCCATCALGLGMPCGVYTPRCGSGLRCYPPRGVEKPLHTLMHGQGVCMELAEIEAIQESLQPSDKDEGDHPNNSFSPCSAHDRRCLQKHFAKIRDRSTSGGKMKVNGAPREDARPVPQGSCQSELHRALERLAASQSRTHEDLYIIPIPNCDRNGNFHPKQCHPALDGQRGKCWCVDRKTGVKLPGGLEPKGELDCHQLADSFRE
